Source: the supplement of paper PMC9112550, “Optimization of the antimicrobial peptide Bac7 by deep mutational scanning” (BMC Biology, 2022)

Each sequence was assayed on Escherichia coli TOP10 (assay: shrunken log2 fold change of peptide-encoding DNA abundance (4.5 h post-induction vs induction); higher = less antimicrobial activity (less host growth inhibition)). Conditions: time post-induction: 4.5 h; library: site-saturation at positions 5, 18, 19, 20.
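Also: peptides expressed intracellularly from a pBAD plasmid library in pooled LB shake-flask culture, induced with 0.3% L-arabinose, DNA abundance read by NGS, three biological replicates, DESeq2 with apeglm shrinkage.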

| Sequence | shrunken log2 fold change |
| --- | --- |
| RRIRHRPPRLPRPRPRPKMRPRP | 0.312 |
| RRIRWRPPRLPRPRPRPNPNPRP | 0.055 |
| RRIRSRPPRLPRPRPRPRASPRP | 0.346 |
| RRIRDRPPRLPRPRPRPTYLPRP | 0.00451 |
| RRIRDRPPRLPRPRPRPMFTPRP | -0.174 |
| RRIRERPPRLPRPRPRPNARPRP | -0.0167 |
| RRIRPRPPRLPRPRPRPKIDPRP | 0.0162 |
| RRIRDRPPRLPRPRPRPDLNPRP | -0.041 |
| RRIRPRPPRLPRPRPRPPVYPRP | 0.162 |
| RRIRTRPPRLPRPRPRPPFKPRP | 0.332 |
| RRIRHRPPRLPRPRPRPRQQPRP | 0.283 |
| RRIRNRPPRLPRPRPRPMDSPRP | -0.0507 |
| RRIRHRPPRLPRPRPRPFHYPRP | -0.0791 |
| RRIRGRPPRLPRPRPRPQDQPRP | 0.531 |
| RRIRDRPPRLPRPRPRPFWFPRP | 0.0429 |
| RRIRSRPPRLPRPRPRPYNIPRP | -0.579 |
| RRIRSRPPRLPRPRPRPQNHPRP | -0.604 |
| RRIRGRPPRLPRPRPRPPEIPRP | 0.851 |
| RRIRHRPPRLPRPRPRPLLLPRP | -0.208 |
| RRIRSRPPRLPRPRPRPTATPRP | 0.703 |
| RRIRYRPPRLPRPRPRPFNAPRP | -2.15 |
| RRIRTRPPRLPRPRPRPPIQPRP | 0.0675 |
| RRIRLRPPRLPRPRPRPVHGPRP | 0.0748 |
| RRIRRRPPRLPRPRPRPPQMPRP | 1.24 |
| RRIRCRPPRLPRPRPRPVCFPRP | -0.141 |

| Sequence | shrunken log2 fold change |
| --- | --- |
| RRIRRRPPRLPRPRPRPHGNPRP | 0.166 |
| RRIRMRPPRLPRPRPRPVRTPRP | 0.673 |
| RRIRSRPPRLPRPRPRPAKCPRP | 0.0862 |
| RRIRCRPPRLPRPRPRPFRRPRP | -0.237 |
| RRIRVRPPRLPRPRPRPKTEPRP | 0.00185 |
| RRIRIRPPRLPRPRPRPMEYPRP | -0.395 |
| RRIRTRPPRLPRPRPRPQAKPRP | -0.147 |
| RRIRTRPPRLPRPRPRPYVSPRP | -0.244 |
| RRIRRRPPRLPRPRPRPYFFPRP | -0.0972 |
| RRIRIRPPRLPRPRPRPPMTPRP | -0.0813 |
| RRIRFRPPRLPRPRPRPNQTPRP | 0.275 |
| RRIRPRPPRLPRPRPRPNLAPRP | 0.294 |
| RRIRARPPRLPRPRPRPRRNPRP | 0.308 |
| RRIRERPPRLPRPRPRPLKQPRP | -0.121 |
| RRIRGRPPRLPRPRPRPSNMPRP | -0.113 |
| RRIRHRPPRLPRPRPRPLIKPRP | -0.721 |
| RRIRARPPRLPRPRPRPGIRPRP | 0.475 |
| RRIRRRPPRLPRPRPRPNFEPRP | 0.413 |
| RRIRCRPPRLPRPRPRPHNRPRP | -0.512 |
| RRIRTRPPRLPRPRPRPRDQPRP | 0.224 |
| RRIRARPPRLPRPRPRPHSCPRP | 0.0724 |
| RRIRWRPPRLPRPRPRPKHFPRP | -0.0487 |
| RRIRQRPPRLPRPRPRPGAEPRP | 0.39 |
| RRIRWRPPRLPRPRPRPVVKPRP | -0.322 |
| RRIRDRPPRLPRPRPRPWVMPRP | -0.167 |

| Sequence | shrunken log2 fold change |
| --- | --- |
| RRIRKRPPRLPRPRPRPNWGPRP | 0.308 |
| RRIRCRPPRLPRPRPRPFYTPRP | 0.235 |
| RRIRARPPRLPRPRPRPEWWPRP | 0.945 |
| RRIRGRPPRLPRPRPRPKCWPRP | 1.09 |
| RRIRERPPRLPRPRPRPCDLPRP | -0.01 |
| RRIRTRPPRLPRPRPRPLNNPRP | -0.135 |
| RRIRMRPPRLPRPRPRPVWKPRP | 0.178 |
| RRIRCRPPRLPRPRPRPFHAPRP | -0.44 |
| RRIRHRPPRLPRPRPRPFDEPRP | -0.173 |
| RRIRLRPPRLPRPRPRPPLHPRP | 0.456 |
| RRIRPRPPRLPRPRPRPKTGPRP | 0.186 |
| RRIRDRPPRLPRPRPRPTDGPRP | -0.107 |
| RRIRKRPPRLPRPRPRPWIWPRP | 1.96 |
| RRIRHRPPRLPRPRPRPPGIPRP | 0.142 |
| RRIRTRPPRLPRPRPRPQWYPRP | -0.524 |
| RRIRMRPPRLPRPRPRPKSKPRP | 0.566 |
| RRIRNRPPRLPRPRPRPQFIPRP | -0.125 |
| RRIRGRPPRLPRPRPRPQYGPRP | -0.008 |
| RRIRGRPPRLPRPRPRPVLDPRP | 0.419 |
| RRIRHRPPRLPRPRPRPWFAPRP | -0.217 |
| RRIRHRPPRLPRPRPRPKPDPRP | 0.0401 |
| RRIRYRPPRLPRPRPRPIVWPRP | 0.0267 |
| RRIRVRPPRLPRPRPRPMTEPRP | 0.0198 |
| RRIRKRPPRLPRPRPRPRRNPRP | 0.316 |
| RRIRRRPPRLPRPRPRPNGQPRP | -0.00184 |

| Sequence | shrunken log2 fold change |
| --- | --- |
| RRIRRRPPRLPRPRPRPTEKPRP | 0.155 |
| RRIRFRPPRLPRPRPRPEFCPRP | 0.139 |
| RRIRNRPPRLPRPRPRPCTKPRP | 0.00474 |
| RRIRGRPPRLPRPRPRPYKPPRP | -0.571 |
| RRIRFRPPRLPRPRPRPVWQPRP | 0.0042 |
| RRIRDRPPRLPRPRPRPFQPPRP | 0.0201 |
| RRIRARPPRLPRPRPRPQREPRP | 0.869 |
| RRIRVRPPRLPRPRPRPHTRPRP | -0.178 |
| RRIRFRPPRLPRPRPRPIPWPRP | -0.14 |
| RRIRTRPPRLPRPRPRPHNEPRP | -0.581 |
| RRIRERPPRLPRPRPRPPVKPRP | 0.0254 |
| RRIRIRPPRLPRPRPRPAFHPRP | -0.2 |
| RRIRARPPRLPRPRPRPIQDPRP | 0.0826 |
| RRIRHRPPRLPRPRPRPHQVPRP | -0.00848 |
| RRIRHRPPRLPRPRPRPRHDPRP | -0.0713 |
| RRIRTRPPRLPRPRPRPICGPRP | 0.0749 |
| RRIRQRPPRLPRPRPRPREIPRP | 0.115 |
| RRIRHRPPRLPRPRPRPYQHPRP | -0.0148 |
| RRIRLRPPRLPRPRPRPGPTPRP | 0.109 |
| RRIRCRPPRLPRPRPRPRKFPRP | -0.00353 |
| RRIRLRPPRLPRPRPRPKNFPRP | 0.492 |
| RRIRQRPPRLPRPRPRPQIMPRP | -0.528 |
| RRIRSRPPRLPRPRPRPCLEPRP | -0.0107 |
| RRIRNRPPRLPRPRPRPDDLPRP | -0.000687 |
| RRIRYRPPRLPRPRPRPNVAPRP | -0.0308 |

| Sequence | shrunken log2 fold change |
| --- | --- |
| RRIRQRPPRLPRPRPRPAYRPRP | -0.216 |
| RRIRDRPPRLPRPRPRPIPYPRP | -0.0147 |
| RRIRERPPRLPRPRPRPMGSPRP | 0.00489 |
| RRIRKRPPRLPRPRPRPCAHPRP | 0.0754 |
| RRIRSRPPRLPRPRPRPKSCPRP | 0.61 |
| RRIRPRPPRLPRPRPRPYIYPRP | -0.518 |
| RRIRPRPPRLPRPRPRPLWGPRP | 0.232 |
| RRIRNRPPRLPRPRPRPHPFPRP | -0.0852 |
| RRIRVRPPRLPRPRPRPGWNPRP | -0.0405 |
| RRIRVRPPRLPRPRPRPMYGPRP | -0.116 |
| RRIRGRPPRLPRPRPRPEHAPRP | 2.78 |
| RRIRFRPPRLPRPRPRPVLVPRP | -0.288 |
| RRIRPRPPRLPRPRPRPHNNPRP | -0.692 |
| RRIRTRPPRLPRPRPRPVHCPRP | 0.0307 |
| RRIRSRPPRLPRPRPRPKADPRP | 0.572 |
| RRIRQRPPRLPRPRPRPDENPRP | 0.106 |
| RRIRNRPPRLPRPRPRPVRIPRP | 0.0513 |
| RRIRYRPPRLPRPRPRPFMSPRP | -0.348 |
| RRIRARPPRLPRPRPRPTTHPRP | 0.38 |
| RRIRDRPPRLPRPRPRPDCLPRP | 0.779 |
| RRIRVRPPRLPRPRPRPSHWPRP | 0.182 |
| RRIRKRPPRLPRPRPRPRQKPRP | -0.0264 |
| RRIRYRPPRLPRPRPRPLEKPRP | 0.0601 |
| RRIRCRPPRLPRPRPRPPPQPRP | 1.34 |
| RRIRRRPPRLPRPRPRPNRDPRP | -0.062 |

| Sequence | shrunken log2 fold change |
| --- | --- |
| RRIRMRPPRLPRPRPRPMVKPRP | 0.0401 |
| RRIRNRPPRLPRPRPRPVGWPRP | 0.855 |
| RRIRERPPRLPRPRPRPSHGPRP | -0.263 |
| RRIRGRPPRLPRPRPRPPDRPRP | 0.564 |
| RRIRARPPRLPRPRPRPMACPRP | 0.879 |
| RRIRWRPPRLPRPRPRPPMTPRP | 0.257 |
| RRIRVRPPRLPRPRPRPLAKPRP | -0.252 |
| RRIRLRPPRLPRPRPRPGNIPRP | -0.0276 |
| RRIRHRPPRLPRPRPRPPNEPRP | 0.159 |
| RRIRYRPPRLPRPRPRPLSMPRP | -0.036 |
| RRIRPRPPRLPRPRPRPRAIPRP | 0.503 |
| RRIRCRPPRLPRPRPRPWIPPRP | -0.457 |
| RRIRLRPPRLPRPRPRPRKFPRP | -0.0381 |
| RRIRMRPPRLPRPRPRPTVVPRP | 0.0159 |
| RRIRTRPPRLPRPRPRPLEGPRP | -0.0217 |
| RRIRERPPRLPRPRPRPNWFPRP | -0.0607 |
| RRIRARPPRLPRPRPRPAANPRP | 0.741 |
| RRIRMRPPRLPRPRPRPGIPPRP | 0.726 |
| RRIRKRPPRLPRPRPRPYVRPRP | 0.00408 |
| RRIRCRPPRLPRPRPRPILMPRP | -0.796 |
| RRIRQRPPRLPRPRPRPAHNPRP | -0.0225 |
| RRIRQRPPRLPRPRPRPVRMPRP | 0.149 |
| RRIRERPPRLPRPRPRPYPHPRP | -0.0727 |
| RRIRWRPPRLPRPRPRPHPGPRP | -0.0288 |
| RRIRTRPPRLPRPRPRPMPLPRP | -0.104 |
